Target: T1, SHP2 binding to GST-PD1 (Homo sapiens, UniProt Q06124)
T1 construct: endogenous in cells; host or cells: SAP-knockdown Jurkat T cells (SHP2); GST-PD-1 tail made in BL21 E. coli
T1 sequence (Q06124 2-593 limits assumed): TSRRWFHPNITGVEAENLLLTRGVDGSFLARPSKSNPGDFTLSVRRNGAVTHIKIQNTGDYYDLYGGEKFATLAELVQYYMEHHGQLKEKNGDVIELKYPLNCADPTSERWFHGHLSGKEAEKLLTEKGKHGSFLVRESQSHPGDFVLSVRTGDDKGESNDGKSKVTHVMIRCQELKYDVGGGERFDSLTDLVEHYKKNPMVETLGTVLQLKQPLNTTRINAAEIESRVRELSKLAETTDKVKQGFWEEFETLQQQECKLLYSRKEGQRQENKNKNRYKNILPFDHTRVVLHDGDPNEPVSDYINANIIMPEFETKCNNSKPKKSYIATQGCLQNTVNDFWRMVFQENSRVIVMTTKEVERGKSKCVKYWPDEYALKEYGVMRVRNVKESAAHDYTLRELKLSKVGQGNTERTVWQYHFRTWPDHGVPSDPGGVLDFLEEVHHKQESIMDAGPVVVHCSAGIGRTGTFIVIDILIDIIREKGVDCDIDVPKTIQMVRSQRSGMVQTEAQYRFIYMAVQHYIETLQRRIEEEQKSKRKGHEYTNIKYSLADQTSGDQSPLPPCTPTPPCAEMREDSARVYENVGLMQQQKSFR
T1 sequence (Q15116 192-288 partner limits assumed): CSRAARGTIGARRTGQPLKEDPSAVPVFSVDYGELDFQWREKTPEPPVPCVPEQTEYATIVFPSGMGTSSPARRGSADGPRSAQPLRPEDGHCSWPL
Test: Affinity purification of SHP2 by GST-PD1 with increasing concentrations of recombinant SAP
Settings: increasing concentrations of recombinant SAP added to SAP KD Jurkat cell lysate
Experimental: FIG. 3. SAP is indirectly associated with PD-1. (ai) Pervanadate treated Jurkat T cells were transiently transfected with GFP-tagged PD-1 or GFP alone; Whole cell lysates (WCL) were immunoprecipitated with an anti-GFP antibody (IP: GFP), and samples were analyzed by immunoblotting. (aii) Densitometry values of data shown in ai. (b) Jurkat T cells were transfected with plasmids directing expression of the indicated fluorescent proteins and after 24 hours cells were stimulated with anti-CD3 antibodies and recombinant PDL2, followed by live-imaging. Bar, 10 μm. […] (di) Jurkat T cells were transfected with different versions of GFP-tagged PD-1, as indicated, followed by treatment with pervanadate; Whole-cell lysates (Input) were immunoprecipitated with an anti-GFP antibody (IP: GFP), and samples were analyzed by immunoblotting. […] (ei) 293T cells were transfected with plasmid directing expression of GFP-SAP or a control GFP plasmid, followed by treatment with pervanadate; Lysates were pulled-down with the GST-tagged PD-1 and samples were analyzed by immunoblotting. […] (gi) SHP2 KD and scrambled control Jurkat T cells were transfected with GFP-tagged PD-1, followed by treatment with pervanadate; Lysates were immunoprecipitated with an anti-GFP antibody (IP: GFP), and samples were analyzed by immunoblotting. […] Samples were analyzed by immunoblot. […]

B1: SAP: Recombinant human SAP (His tagged), signaling lymphocytic activation molecule-associated protein, purchased from Abcam (protein, UniProt O60880 1-128, looked up)
SH2 domain-containing protein …: MDAVAVYHGKISRETGEKLLLATGLDGSYLLRDSESVPGVYCLCVLYHGYIYTYRVSQTETGSWSAETAPGVHKRYFRKIKNLISAFQKPDQGIVIPLQYPVEKKSSARSTQGTTGIREDPDVCLKAP
modifications: His tag
With B1 the “interference with the affinity-purification of SHP2 by GST-PD1” value was “did not interfere”.

From patent US11110171B2, “PD-1 related cancer therapy” (New York University, priority 2017, dated 2021)
